B2: EccB3 (natural protein)
chain: MTGPVNPDDRRSFSSRTPVNENPDGVQYRRGFVTRHQVSGWRFVMRRIASGVALHDTRMLVDPLRTQSRAVLTGALILVTGLVGCFIFSLFRPGGVPGNNAILADRSTSALYVRVGEQLHPVLNLTSARLISGSPDNPTMVKTSEIDKFPRGNLLGIPGAPERMVQNAATDAEWTVCDAVGGANPGVTVIAGPLGADGERAAPLPPDHAVLVHSDAEPNPGDWLLWDGKRSPIDLADRAVTDALGLGGQALAPRPIAAGLFNAVPAAPALTAPVIPDAGAAPQFELSLPVPVGAVVVAYDADNTARYYAVLSDGLQPISPVLAAILRNTDSHGFAQPPRLGPDEVARTPMSRGLDTSAYPDNPVTLVEASAHPVTCAHWTKPSDAAESSLSVLSGAVLPLAEGLHTVDLVGAGAGGAANRVALTPGTGYFVQTVGAEPGSPTAGSMFWVSDTGVRYGIDTAEDDKVVAALGLSTSPLPVPWSVLSQFAAGPALSRGDALVAHDAVSTNPNSARMEASR
B3: EccD3 (natural protein)
chain: MSENTVMPIVRVAVLAAGDDGGRLTEMALPSELPLREILPAVQRIVQPARENDGAADPAAAPNPVRLSLAPIGGAPFSLDATLDTVGVVDGDLLALQAVPSGPPAPRIVEDIADAAVIFSEARRRQWGPTHIARGAALALIGLILVGTGLSVAHRVITGDLLGQFIVSGIALATVIAALAVRNRSAVLATSLAVTALVPVAAAFALGVPGDFGAPNVLLAAAGVAAWSLISMAGSPDDRGIAVFTATAVTGVGVLLVAGAASLWVISSDVIGCALVLLGLIVTVQAAQLSAMWARFPLPVIPAPGDPTPAARPLSVLADLPRRVRVSQAHQTGVIAAGVLLGVAGSVALVSSANASPWAWYIVVAAAAGAALRARVWDSAACKAWLLGHSYLLAVALLVAFVIGDRYQAALWALAALAVLVLVWIVAALNPKIASPDTYSLPMRRMVGFLATGLDASLIPVMALLVGLFSLVLDR

Key:
Test in all cases: cryo-EM structure
EccD3 = molecular target: B3
cryo-EM structure = molecular target: the molecule itself
EccC3 = molecular target: T1, EccC3 (M. smegmatis (endogenous in M. …, UniProt A0QQ40 1-1325))
T1 sequence: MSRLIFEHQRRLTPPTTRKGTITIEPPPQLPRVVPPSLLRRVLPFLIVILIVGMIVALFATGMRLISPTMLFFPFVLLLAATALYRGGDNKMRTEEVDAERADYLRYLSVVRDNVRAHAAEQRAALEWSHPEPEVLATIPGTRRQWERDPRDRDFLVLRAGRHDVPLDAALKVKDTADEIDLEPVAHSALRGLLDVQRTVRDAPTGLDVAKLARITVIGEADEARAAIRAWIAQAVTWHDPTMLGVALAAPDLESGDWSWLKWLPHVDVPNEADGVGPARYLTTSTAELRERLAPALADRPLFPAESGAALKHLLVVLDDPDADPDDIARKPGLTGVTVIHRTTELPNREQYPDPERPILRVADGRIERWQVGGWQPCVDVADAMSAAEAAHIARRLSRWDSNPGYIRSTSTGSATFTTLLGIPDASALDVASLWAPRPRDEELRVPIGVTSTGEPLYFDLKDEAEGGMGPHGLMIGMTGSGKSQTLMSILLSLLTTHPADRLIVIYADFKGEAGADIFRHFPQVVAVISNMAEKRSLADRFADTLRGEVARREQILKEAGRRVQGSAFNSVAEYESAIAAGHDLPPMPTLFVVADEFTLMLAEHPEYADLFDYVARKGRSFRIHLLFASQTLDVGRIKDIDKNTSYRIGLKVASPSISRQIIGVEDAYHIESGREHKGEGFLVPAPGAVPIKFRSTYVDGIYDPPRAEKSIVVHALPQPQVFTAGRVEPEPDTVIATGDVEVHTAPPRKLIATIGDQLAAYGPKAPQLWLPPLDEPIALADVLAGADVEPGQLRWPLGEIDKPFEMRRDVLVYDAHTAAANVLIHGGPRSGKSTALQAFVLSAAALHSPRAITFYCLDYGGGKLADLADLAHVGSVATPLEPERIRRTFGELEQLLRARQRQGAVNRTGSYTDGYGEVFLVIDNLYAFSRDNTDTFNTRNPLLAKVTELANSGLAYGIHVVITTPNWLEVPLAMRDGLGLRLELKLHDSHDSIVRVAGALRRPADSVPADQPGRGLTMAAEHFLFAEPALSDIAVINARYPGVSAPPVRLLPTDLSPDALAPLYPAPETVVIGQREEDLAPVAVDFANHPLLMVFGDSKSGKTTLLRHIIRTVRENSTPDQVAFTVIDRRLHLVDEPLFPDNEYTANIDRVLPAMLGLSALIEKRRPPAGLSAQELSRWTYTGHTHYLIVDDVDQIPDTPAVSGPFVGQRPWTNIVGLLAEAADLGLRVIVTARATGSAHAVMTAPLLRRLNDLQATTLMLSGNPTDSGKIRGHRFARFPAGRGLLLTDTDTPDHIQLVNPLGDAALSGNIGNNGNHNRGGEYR

EccB3 = molecular target: B2

B1: EccE3 (natural protein)
chain: MTARIALASLFVVAAVLAQPWQTTTQRWVLGVSIAAVIVLLAWWKGMFLTTRIGRALAMVRRNRAEDTVETDAHRATVVLRVDPAAPAQLPVVVGYLDRYGITCDKVRITHRDAGGTRRSWISLTVDAVDNLAALQARSARIPLQDTTEVVGRRLADHLREQGWTVTVVEGVDTPLPVSGKETWRGVADDAGVVAAYRVKVDDRLDEVLAEIGHLPAEETWTALEFTGSPAEPLLTVCAAVRTSDRPAAKAPLAGLTPARGRHRPALAALNPLSTERLDGTAVPLPAVVRTSVKGSVEHEAAQEAGHPA
Question: Does B1 bind (EccD3)?
Answer: binds

Question: Which results are given for B2?
Answer: binding result (cryo-EM structure): binds; binding result (EccC3): binds

Question: Which results are given for B3?
Answer: stoichiometry N (cryo-EM structure): 2; binding result (EccC3): binds; binding result (EccB3): binds

Source: article doi:10.1101/800169 (bioRxiv, 2019)
